Substitutions are numbered along the chain they refer to. In names and notes the source's numbering stands.

T1: Human CD3eg linker (human)
T1 construct: single-chain construct; also called recombinant human CD3
T1 chain: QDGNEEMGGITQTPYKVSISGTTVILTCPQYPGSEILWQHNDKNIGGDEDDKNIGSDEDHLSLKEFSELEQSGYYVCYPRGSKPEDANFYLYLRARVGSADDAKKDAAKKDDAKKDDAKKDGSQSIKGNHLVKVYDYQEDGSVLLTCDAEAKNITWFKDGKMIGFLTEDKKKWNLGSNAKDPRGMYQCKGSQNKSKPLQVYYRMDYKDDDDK

B1: dBBDu183H S99Y/dBBDu072L (antibody, name in Kabat numbering, V domains shown)
VH: QVQLVESGGGLVQPGRSLRLSCAASGFTFSNAWMHWVRQAPGKGLEWVAQIKDKGNAYAAYYAPSVKGRFTISRDDSKNSIYLQMNSLKTEDTAVYYCHYVHYAYASTVLPAFGVDAWGQGTTVTVSS
VL: DIVMTQSPLSLPVTPGEPASISCQASQELVHMNRNTYLHWYQQKPGQAPRLLIYKVSNRFPGVPDRFSGSGSGTDFTLKISRVEAEDVGVYYCAQGTSVPFTFGQGTKLEIK
B2: dBBDu183H T100bF/dBBDu072L (antibody, name in Kabat numbering, V domains shown)
VH: B1 VH with Y105S, T108F
VL: B1 VL
B3: dBBDu183H T100bW/dBBDu072L (antibody, name in Kabat numbering, V domains shown)
VH: B1 VH with Y105S, T108W
VL: B1 VL
B4: dBBDu183H V95E/dBBDu072L (antibody, name in Kabat numbering, V domains shown)
VH: B1 VH with V101E, Y105S
VL: B1 VL
B5: dBBDu183H S100aK/dBBDu072L (antibody, name in Kabat numbering, V domains shown)
VH: B1 VH with Y105S, S107K
VL: B1 VL
B6: dBBDu183H T100bH/dBBDu072L (antibody, name in Kabat numbering, V domains shown)
VH: B1 VH with Y105S, T108H
VL: B1 VL
B7: dBBDu183H T100bY/dBBDu072L (antibody, name in Kabat numbering, V domains shown)
VH: B1 VH with Y105S, T108Y
VL: B1 VL
B8: dBBDu183H S100aG/dBBDu072L (antibody, name in Kabat numbering, V domains shown)
VH: B1 VH with Y105S, S107G
VL: B1 VL
B9: dBBDu183H S100aT/dBBDu072L (antibody, name in Kabat numbering, V domains shown)
VH: B1 VH with Y105S, S107T
VL: B1 VL
B10: dBBDu183H T100bR/dBBDu072L (antibody, name in Kabat numbering, V domains shown)
VH: B1 VH with Y105S, T108R
VL: B1 VL
B11: dBBDu183H S100aV/dBBDu072L (antibody, name in Kabat numbering, V domains shown)
VH: B1 VH with Y105S, S107V
VL: B1 VL
B12: dBBDu183H S100aQ/dBBDu072L (antibody, name in Kabat numbering, V domains shown)
VH: B1 VH with Y105S, S107Q
VL: B1 VL
B13: dBBDu183H T100bD/dBBDu072L (antibody, name in Kabat numbering, V domains shown)
VH: B1 VH with Y105S, T108D
VL: B1 VL
B14: dBBDu183H V63T/dBBDu072L (antibody, name in Kabat numbering, V domains shown)
VH: B1 VH with V66T, Y105S
VL: B1 VL
B15: dBBDu183H V63E/dBBDu072L (antibody, name in Kabat numbering, V domains shown)
VH: B1 VH with V66E, Y105S
VL: B1 VL
B16: dBBDu183H T100bS/dBBDu072L (antibody, name in Kabat numbering, V domains shown)
VH: B1 VH with Y105S, T108S
VL: B1 VL
B17: dBBDu183H T100bQ/dBBDu072L (antibody, name in Kabat numbering, V domains shown)
VH: B1 VH with Y105S, T108Q
VL: B1 VL
B18: dBBDu183H T100bV/dBBDu072L (antibody, name in Kabat numbering, V domains shown)
VH: B1 VH with Y105S, T108V
VL: B1 VL
B19: dBBDu183H T100bE/dBBDu072L (antibody, name in Kabat numbering, V domains shown)
VH: B1 VH with Y105S, T108E
VL: B1 VL
B20: dBBDu183H V63Q/dBBDu072L (antibody, name in Kabat numbering, V domains shown)
VH: B1 VH with V66Q, Y105S
VL: B1 VL
B21: dBBDu183H V63G/dBBDu072L (antibody, name in Kabat numbering, V domains shown)
VH: B1 VH with V66G, Y105S
VL: B1 VL
B22: dBBDu183H S100aY/dBBDu072L (antibody, name in Kabat numbering, V domains shown)
VH: B1 VH with Y105S, S107Y
VL: B1 VL
B23: dBBDu183H S100aN/dBBDu072L (antibody, name in Kabat numbering, V domains shown)
VH: B1 VH with Y105S, S107N
VL: B1 VL
B24: dBBDu183H S100aW/dBBDu072L (antibody, name in Kabat numbering, V domains shown)
VH: B1 VH with Y105S, S107W
VL: B1 VL
B25: dBBDu183H V95D/dBBDu072L (antibody, name in Kabat numbering, V domains shown)
VH: B1 VH with V101D, Y105S
VL: B1 VL
B26: dBBDu183H V63W/dBBDu072L (antibody, name in Kabat numbering, V domains shown)
VH: B1 VH with V66W, Y105S
VL: B1 VL
B27: dBBDu183H V63R/dBBDu072L (antibody, name in Kabat numbering, V domains shown)
VH: B1 VH with V66R, Y105S
VL: B1 VL
B28: dBBDu183H S100aF/dBBDu072L (antibody, name in Kabat numbering, V domains shown)
VH: B1 VH with Y105S, S107F
VL: B1 VL
B29: dBBDu183H T100bN/dBBDu072L (antibody, name in Kabat numbering, V domains shown)
VH: B1 VH with Y105S, T108N
VL: B1 VL
B30: dBBDu183H V63F/dBBDu072L (antibody, name in Kabat numbering, V domains shown)
VH: B1 VH with V66F, Y105S
VL: B1 VL
B31: dBBDu183H T100bK/dBBDu072L (antibody, name in Kabat numbering, V domains shown)
VH: B1 VH with Y105S, T108K
VL: B1 VL
B32: dBBDu183H V63D/dBBDu072L (antibody, name in Kabat numbering, V domains shown)
VH: B1 VH with V66D, Y105S
VL: B1 VL
B33: dBBDu183H S100aR/dBBDu072L (antibody, name in Kabat numbering, V domains shown)
VH: B1 VH with Y105S, S107R
VL: B1 VL
B34: dBBDu183H V63S/dBBDu072L (antibody, name in Kabat numbering, V domains shown)
VH: B1 VH with V66S, Y105S
VL: B1 VL
B35: dBBDu183H S100aE/dBBDu072L (antibody, name in Kabat numbering, V domains shown)
VH: B1 VH with Y105S, S107E
VL: B1 VL
B36: dBBDu183H V63Y/dBBDu072L (antibody, name in Kabat numbering, V domains shown)
VH: B1 VH with V66Y, Y105S
VL: B1 VL
B37: dBBDu183H V63N/dBBDu072L (antibody, name in Kabat numbering, V domains shown)
VH: B1 VH with V66N, Y105S
VL: B1 VL
B38: dBBDu183H V63K/dBBDu072L (antibody, name in Kabat numbering, V domains shown)
VH: B1 VH with V66K, Y105S
VL: B1 VL
B39: dBBDu183H S100aD/dBBDu072L (antibody, name in Kabat numbering, V domains shown)
VH: B1 VH with Y105S, S107D
VL: B1 VL
B40: dBBDu183H V63H/dBBDu072L (antibody, name in Kabat numbering, V domains shown)
VH: B1 VH with V66H, Y105S
VL: B1 VL
B41: dBBDu183H T100bG/dBBDu072L (antibody, name in Kabat numbering, V domains shown)
VH: B1 VH with Y105S, T108G
VL: B1 VL
B42: dBBDu183H S100aH/dBBDu072L (antibody, name in Kabat numbering, V domains shown)
VH: B1 VH with Y105S, S107H
VL: B1 VL

In this assay the target is T1, Human CD3eg linker. The assay is described as follows: SPR, vs unmutated H183/L072.
As to B1, the “fold change of affinity” value was 0.8 fold.

With B2, the “fold change of affinity” value stood at 1.2 fold.

As for B3, the “fold change of affinity” value turned out to be 1.8 fold.

For B4, the “fold change of affinity” value stood at 0 fold.

Consider B5, for which the “fold change of affinity” value stood at 0.9 fold.

Take B6: the “fold change of affinity” value is 1.2 fold.

As for B7, the “fold change of affinity” value stood at 1.8 fold.

Take B8: the “fold change of affinity” value stood at 1.2 fold.

In the case of B9, the “fold change of affinity” value came to 0.9 fold.

Regarding B10, the “fold change of affinity” value is 1.8 fold.

With B11, the “fold change of affinity” value came out at 1 fold.

Turning to B12, the “fold change of affinity” value is 0.5 fold.

In the case of B13, the “fold change of affinity” value was 0.6 fold.

Regarding B14, the “fold change of affinity” value came out at 1.2 fold.

As for B15, the “fold change of affinity” value was 1.1 fold.

Turning to B16, the “fold change of affinity” value turned out to be 1.5 fold.

Consider B17, for which the “fold change of affinity” value came to 1.1 fold.

For B18, the “fold change of affinity” value turned out to be 1.2 fold.

Consider B19, for which the “fold change of affinity” value worked out at 0.6 fold.

With B20, the “fold change of affinity” value amounted to 1.2 fold.

On to B21, for which the “fold change of affinity” value was 1 fold.

Take B22: the “fold change of affinity” value was 1.2 fold.

For the molecule B23, the “fold change of affinity” value is 0.8 fold.

On to B24, for which the “fold change of affinity” value is 1.6 fold.

Take B25: the “fold change of affinity” value was 0 fold.

Consider B26, for which the “fold change of affinity” value turned out to be 0.8 fold.

For B27, the “fold change of affinity” value amounted to 1.2 fold.

Regarding B28, the “fold change of affinity” value is 1.6 fold.

For B29, the “fold change of affinity” value stood at 1 fold.

As for B30, the “fold change of affinity” value came to 1.1 fold.

As to B31, the “fold change of affinity” value worked out at 1.3 fold.

With B32, the “fold change of affinity” value is 1.3 fold.

As for B33, the “fold change of affinity” value came out at 0.6 fold.

As for B34, the “fold change of affinity” value turned out to be 1.1 fold.

B35: the “fold change of affinity” value was determined as 0.6 fold.

For B36, the “fold change of affinity” value worked out at 1.1 fold.

Turning to B37, the “fold change of affinity” value worked out at 1.3 fold.

For B38, the “fold change of affinity” value came out at 1.3 fold.

Consider B39, for which the “fold change of affinity” value was 0.6 fold.

On to B40, for which the “fold change of affinity” value came to 1 fold.

In the case of B41, the “fold change of affinity” value came to 1.1 fold.

With B42, the “fold change of affinity” value was 1.1 fold.

The values above are taken from patent US20210388087A1 (Chugai, published 2021).
